Experiment [1] concerns the target T1, hIL-6R.BP15 (human interleukin-6 receptor with BP15 tag, biotinylated) (human, UniProt P08887 20-365, site-directed biotinylation on the BP15 tag).
T1 sequence: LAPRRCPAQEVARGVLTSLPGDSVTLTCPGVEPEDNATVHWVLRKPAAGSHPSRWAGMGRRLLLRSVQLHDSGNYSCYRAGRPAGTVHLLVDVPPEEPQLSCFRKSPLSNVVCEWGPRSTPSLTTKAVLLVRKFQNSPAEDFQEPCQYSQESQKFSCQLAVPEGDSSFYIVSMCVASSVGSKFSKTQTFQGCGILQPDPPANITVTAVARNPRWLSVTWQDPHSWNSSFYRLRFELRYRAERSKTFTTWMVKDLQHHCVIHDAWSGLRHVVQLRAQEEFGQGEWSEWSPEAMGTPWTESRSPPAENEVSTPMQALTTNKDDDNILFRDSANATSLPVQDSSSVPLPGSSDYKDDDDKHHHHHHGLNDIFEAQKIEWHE
Briefly: blocking ELISA: coated IL-6.Fc, 1 ng/ul biotinylated IL-6R.BP15 with serially diluted antibody, HRP-streptavidin, OD450; blocked ligand IL-6.Fc; unit from the abscissa. How it is done: The formation of IL-6R/IL-6 complex can be blocked by the binding of IL-6R antibody to IL-6R, indicating the downstream cell signaling could be blocked by preventing IL-6/IL-6Rcomplex formationon the cell membrane. All of the expressed the purified antibodies were tested for their abilities to block the binding between IL-6 and IL-6R by ELISA. The procedures was descripted as follows:
The plates were coated with100 μl of 2 ng/μl IL-6.Fc at 4° C. overnight, and blocked with 2% skim milk at 37° C. for 1 hour. The plates were then washed, incubated with 100 μl of serial diluted testing samples with and 1 ng/μl IL-6R.BP15. After 1 hourincubation at 37° C,. the plates were washed andHRP-streptavidin (Jackson, 016-030-084) diluted at 1:4000 was added to the plate followed by incubation. After wash and 100 μl TMB develoment at room temperature for 5 min. 100 μl of 1M H₂SO₄ was added to terminate the reaction. The OD₄₅₀ values were read.

Experiment [2] has as its target T1, hIL-6R.BP15 (human interleukin-6 …). Description: blocking ELISA: coated gp130, IL-6.his and IL-6R.BP15 (0.06 ug/ml) with serially diluted antibody, HRP-streptavidin, OD450; blocked: binding of the IL-6/IL-6R complex to gp130; unit from the abscissa. As to the method:
The complex of IL-6 and IL-6R can bind to GP130. The assay will evaluate if the selected antibodies were able to block the formation of IL-6/IL-6R/gp130 complex by binding to IL-6R. The plates were coated with 1 μg/ml gp130 (diluted in PBS) at 4° C. overnight. The coating solution was discarded, and plates were blocked with 5% skim milk in PBS at 37° C. for 2-3h. After blocking, the plates were washed 3 times with washing buffer PBST (0.1% Tween-20 in PBS).
IL-6.his and IL-6R.BP15 were diluted with 1% BSA in PBS to a concentration of 0.06 μg/ml. Starting at 50 ug/ml, IL-6R antibodies were 1:3 serially diluted in dilution buffer and Both testing antibody samples and IL-6/IL-6R complex were added to the plate followed by lh incubation at 37° C. After that, the plates were washed for 3 times with washing buffer PBST (0.1% Tween-20 in PBS).
1:2000 diluted Secondary antibody HRP streptavidin (Jackson, 016-030-084) was added to the plate followed by 1 h incubation at 37° C.After incubation and wash,. TMB was used for development. OD₄₅₀ values were read.
For orientation: An ELISA detects its analyte on a solid surface through an enzyme-linked reagent.

For experiment [3], the target named is T2, membrane-type IL-6R on cells (U266B1, TF-1, Hep3B) (UniProt P08887 20-468, limits assumed).
T2 sequence (looked up): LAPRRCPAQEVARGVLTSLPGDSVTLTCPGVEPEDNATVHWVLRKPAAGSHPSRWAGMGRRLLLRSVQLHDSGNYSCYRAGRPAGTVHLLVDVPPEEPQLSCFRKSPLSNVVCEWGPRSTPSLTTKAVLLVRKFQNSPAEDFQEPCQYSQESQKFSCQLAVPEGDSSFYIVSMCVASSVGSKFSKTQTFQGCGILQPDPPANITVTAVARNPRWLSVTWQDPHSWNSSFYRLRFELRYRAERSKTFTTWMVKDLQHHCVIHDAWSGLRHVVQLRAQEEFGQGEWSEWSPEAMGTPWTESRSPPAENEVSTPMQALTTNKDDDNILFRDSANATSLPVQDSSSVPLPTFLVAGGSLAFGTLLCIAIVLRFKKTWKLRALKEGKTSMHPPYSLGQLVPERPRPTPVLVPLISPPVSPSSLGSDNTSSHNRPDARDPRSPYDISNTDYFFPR
Briefly: cell-based or functional assay.

B1: Sari (antibody, human IgG1, kappa, V domains shown)
VH: EVQLVESGGGLVQPGRSLRLSCAASRFTFDDYAMHWVRQAPGKGLEWVSGISWNSGRIGYADSVKGRFTISRDNAENSLFLQMNGLRAEDTALYYCAKGRDSFDIWGQGTMVTVSS
VL: DIQMTQSPSSVSASVGDRVTITCRASQGISSWLAWYQQKPGKAPKLLIYGASSLESGVPSRFSGSGSGTDFTLTISSLQPEDFASYYCQQANSFPYTFGQGTKLEIKR
notes: Positive control antibody; also called Sarilumab; anti-IL-6R antibody sarilumab (Regeneron)
The term IC50 denotes the midpoint of a concentration-inhibition curve. A high value points to weaker potency. For B1, the half-maximal inhibitory concentration (IC50) in experiment [1] worked out at 0.5 µg/mL; in experiment [2], 0.0474 µg/mL.

B2: Tocilizumab (antibody, human IgG1, kappa, V domains shown)
VH: EVQLQESGPGLVRPSQTLSLTCTVSGYSITSDHAWSWVRQPPGRGLEWIGYISYSGITTYNPSLKSRVTMLRDTSKNQFSLRLSSVTAADTAVYYCARSLARTTAMDYWGQGSLVTVSS
VL: DIQMTQSPSSLSASVGDRVTITCRASQDISSYLNWYQQKPGKAPKLLIYYTSRLHSGVPSRFSGSGSGTDFTFTISSLQPEDIATYYCQQGNTLPYTFGQGTKVEIKR
notes: Positive control; also called anti-IL-6R humanized mAb tocilizumab
In the case of B2, the IC50 in experiment [1] was found to be 0.466 µg/mL; in experiment [2], 0.49 µg/mL. The “Relative expression level of hepcidin mRNA (fold) in Hep3B cells with 5 nM antibody and 10 ng/ml IL-6 (blank 1; IL-6 only 2.783)” value in experiment [3] was found to be 1.87 fold.

The values are drawn from patent publication US20200369774A1 (JIANGSU HENGRUI MEDICINE, published 2020).
